Drawing on paper PMC4604771, “A novel eurythermic and thermostale lipase LipM from Pseudomonas moraviensis M9 and its application in the partial hydrolysis of algal oil” (BMC Biotechnology, 2015), this text covers Km and kcat for one protein.

For orientation: Km means the substrate concentration at which the rate is half of its maximum. For orientation: kcat means the number of substrate molecules converted per active site and unit of time at saturation.

Substrate in this series: CCCCCCCC(=O)Oc1ccc([N+](=O)[O-])cc1
The experiment in a line: p-nitrophenol release, Lineweaver-Burk plot. As to conditions: 50 mM Tris-HCl, pH 8.0, 65 °C, 0.01-2 mM substrate. In kind it is biochemical, Pseudomonas moraviensis.

B1: LipM (Pseudomonas moraviensis) (protein)
chain: MGLFDYRNADGKALYSDAIALTLYAYAPTGEPLPATAWAPVAATALGYQGKVGPQGTFFGEQDGYTSAEAEVLGKYDAAGKLIGIGIAFRGTGGLGYSDTYGDMKNNLLAAFGPSDYASHYAKNAFDHLLKAVAAFAIANGIAAQDVLISGHSLGGLGVNSVAELSASHWGGFFKDANYIAFASPTQSSTGSNVLNIGYENDPVFRALDGTTFSSGSLGKHDGAHDSTTDNIVNFTDNYASTAQNLVPFSIVNPLNWSAHSSLGYADGLNRVIDSQFYALTHKDSTIIVSNLEEASRGKTWVEDLGRSGEPHVGSTLIIGTHSSDWLKGGSGNDFLEGLGGDDRFRDDGGFNILLGGQGHNTFELQKPLQNFSFANDGDGTLYVRDAYGGISLTRDIGALVSKEAGSWWGSKEITWGVTAKGLSNGSELTQYNHSLSGDGYGNALHASADGDWLFGLGGNDSLISDKGHVTFVGGAGNDVMTALGGNNTFLFSGAFGFDAVNGYQGNDKLVFMGVEGAGQGYDYKQHASQSGDDTVLKIGDYAVTLIGVGVANLSDSSIMFA
notes: pET-22b(+) NdeI/XhoI, His tag kept (C-terminal by vector)
For the protein B1, the Km is 360 µM and the kcat was found to be 35.7 s⁻¹.
